Measurements taken from the DeepSol protein solubility set.

Assay: soluble on expression in E. coli; label from the status in PepcDB or PDB records

Sequence	soluble on expression in E. coli
MIKEKYTFDDLVEIMKILRSENGCPWDRVQNHESLKKYLIEETYEVLEVIDLNDKKRLCEELGDLLLQIVFHAQIASEDNEFDINDVITGICRKMVQRHTHVFGTDKADTAEEVLANWEEIKKKEKGMESQTEVLKSVPSNLPALMRSYKVQQKASQVGFDWKDIDSVFEKVYEEINELRDVYKSKDVERINDELGDVLFSIVNLSRFLKVQPELALMGSVNKFIERFEFIEKEAAKSGRTLSEMSLDEMDELWNKAKTKI	soluble
MIKLIATDMDGTFLAEDGTYNQEQLAALLPKLAEKGILFAVSSGRSLLAIDQLFEPFLDQIAVIAENGSVVQYRGEILFADMMTKEQYTEVAKKILANPHYVETGMVFSGQKAAYILKGASEEYIQKTKHYYANVKVINGFEDMENDAIFKVSTNFTGHTVLEGSDWLNQALPYATAVTTGFDSIDIILKEVNKGFGMEHLCQALGIKKAETIAFGDNFNDYQMLEFAGRAIATENARPEIKVISDQVIGHCNDGAVLTYLKGLV	not soluble
MIKTDLNDFAWFVHVVEEGGFAAAGRALDEPKSKLSRRIAQLEERLGVRLIQRTTRQFNVTEVGQTFYEHCKAMLVEAQAAQDAIAALQVEPRGIVKLTCPVTLLHVHIGPMLAKFMARYPDVSLQLEATNRRVDVVGEGVDVAIRVRPRPFEDSDLVMRVLADRGHRLFASPDLIARMGIPSAPAELSHWPGLSLASGKHIHRWELYGPQGARAEVHFTPRMITTDMLALREAAMAGVGLVQLPVLMVKEQLAAGELVAVLEEWEPRREVIHAVFPSRRGLLPSVRALVDFLTEEYARMVEE	not soluble
MIKVDQHYFELIENYRECFNEEQFIARYSDILDKYDYIVGDYGYDQLRLKGFYKDSNKKAEMSKRFSNIQDYIFEYCNFGCPYFVLRHLSKQEVKKLIEEVHPSDVIDDDNKLQDVKIKPTIQDTEHLEHHHHHH	not soluble
MILDADIKTQLSQYLQLMENDILLKVSAGNDDVSKDMLALVDELATMSSKITVEKVELERTPSFSVNRPGEDTGVVFAGIPLGHEFTSLVLALLQVSGRAPKVEQKLIDQIKNIQGEYHFESYISLSCHNCPDVVQALNVMSVLNSGITHTMIDGAAFKEEVESKDIMAVPTVFLNGESFGSGRMTLEEILAKMGNGPDASELSDKDPYDVLVVGGGPAGASAAIYAARKGIRTGIVAERFGGQVMDTMGIENFISVKRTEGPKLVASLEEHVKEYDIDVMNLQRAKRLEKKELIEVELENGAILKSKSVIVSTGARWRNVGVPGEAEFKNKGVAYCPHCDGPLFTGKDVAVIGGGNSGIEAAIDLAGIVKHVTVLEFMPELKADAVLQERLNSLPNVTVLKNVQTKEITGTDKVNGISYIDRETEEVHHVELQGVFVQIGLVPNTDWLGETVERVRGEIVTDKHGATNVPGVFAAGDCTNNPYKQIIISMGSGANAALGAFDYLIRN	not soluble
MILIGDSGSTKTDWCIAKEGKSLGRFQTSGINPFQQDRNEIDTALRSEVLPAIGQKASSIRAVYFYGAGCTPAKAPMLNEALDSMLPHCDRIEVAGDMLGAARALCGDSEGIACILGTGSNSCLFDGREIKANVSPLGYILGDEGSGAVLGRLFIGSLLKGQMPEGLCEAFLQEYGLTSADIIESVYRKPFPNRFLAGFSPFIAQHLDIPAVYSLVQNSFDDFLVRNVLRYNRPDLPLHFIGSVAFHYREVLSSVIKKRGLTLGSVLQSPMEGLIQYHHNNHVLEHHHHHH	soluble
MILKLKYYREAMNLTQEELARHAKVSVAMVQSMENGRRKGSTDTILKLSDALNVTVDDLLRGNNMTISHKKETSK	not soluble
MILRASVLSALLLVGLGAAPKHSVSANDKRMQDNLVSVIEKQTNKKVRILEIKPLKSSQDLKMVVIEDPDTKYNIPLVVSKDGNLIIGLSNIFFSNKSDDVQLVAETNQKVQALNATQQNSAKLNAIFNEIPADYAIELPSTNAANKDKILYIVSDPMCPHCQKELTKLRDHLKENTVRMVVVGWLGVNSAKKAALIQEEMAKARARGASVEDKISILEKIYSTQYDINAQKEPEDLRTKVENTTKKIFESGVIKGVPFLYHYKA	not soluble
MILTPPDTPFFLRNGNADTIAAKFLQRPAPAYRRELLPDSTGKTKVAYDFSDGISPDAPLVVLFHGLEGSSRSHYAVELMLAVRDRGWHGVVVHFRSCGGIANTAPVFYHLGDTAEIAFTLDTFAARYREIYAVGVSLGGNALAKYLGEQGKKALPQAAAVISAPVDAEAAGRRFDSGITRLLYTRYFLRTLIPKAKSLQGFQTAFAAGCKTLGEFDDRFTAPLHGFADRHDYYRQTSCKPLLKHVAKPLLLLNAVNDPFLPPEALPRADEVSEAVTLFQPAYGGHVGFVSSTGGRLHLQWLPQTVLSYFDSFRTNRR	not soluble
MILVTGGARSGKSRHAEALIGDAPQVLYIATSQILDDEMAARIQHHKDGRPAHWRTAECWRHLDTLITADLAPDDAILLECITTMVTNLLFALGGENDPEQWDYAAMERAIDDEIQILIAACQRCPAKVVLVTNEVGMGIVPENRLARHFRDIAGRVNQRLAAAADEVWLVVSGIGVKIK	soluble
MINDDILAHARQCAPAESCGYVVRTAQGERYFPCENLSAEPTMYFRISPEDYLNARNRGDIVALVHSHPDGKPCLSSADRTLQIQSGLDWWLVCDNRIHKFRCVPHLTGRQFEHGVTDCYTLFRDAYHLAGIDMPDFDREDDWWSQGKSLYLDHLEAAGFYRVNPEDAQPGDVLICCFGSPTPNHAAIYCGNGELLHHIPEQLSKREGYNDKWQRRTHSIWRHRQWCESAFTGIYNDLESASASA	not soluble
MINFEATELRLGLPGGNHGGEMAGKNNGKRGFSETVDLKLNLSSTAMDSVSKVDLENMKEKVVKPPAKAQVVGWPPVRSFRKNVMSGQKPTTGDATEGNDKTSGSSGATSSASACATVAYVKVSMDGAPYLRKIDLKLYKTYQDLSNALSKMFSSFTIGNYGPQGMKDFMNESKLIDLLNGSDYVPTYEDKDGDWMLVGDVPWEMFVDSCKRIRIMKGSEAIGLAPRALEKCKNRS	soluble
MINIHRFVQNRFLRTRHAHPFGIVLDIDGVLFRGRNMLPRVKEAFSLITDKKGNFVVPTVFLTNGTNSTEKNKAAQLSEQLGFRVPADNVLMSHSPLRMFTDLHDKQVLVVGQKNARAIAKGIIFFRVGFKKVTTIDHLVKWFPHLDCTDFSRKLVDPKETEAARKRFRPIEAIVMLGEPLKWETSLQLMLDCVLTYGKMDTMVFPLIAGGRRPDHIPIVACNVDLVWMADVASQLPRIGHGTFIHILDSLYEKLTGQHLQFRATLGKPTEVSYLHAAHRIQRQAKAMKLEDVKYVYVIGDNPMSDVLGARLFDRYLRHGGVGRFDHLDLEAFDVNDGEKPRVRTRNVVERCISILVETGVHQDHVHINGMVKPISALIDNLSKGEQLKLQLPDFVEYDLHAAIRTILRRECYR	not soluble
MINQDFILSQVVGGSLDAVAREMSATVTRTARSPLFNEAHDFTTGVFDLSGKKSRLVAQAPGCTLHLYAVVGAVDHLLDAFRYDLHPGDILLVNDPYHGGSHSLDWTIVMPVFYNRKPILLPAVRSHMADNGGPVAGGYNPRSKDIWHDGLRIPPLKIYERGEKRRDVFDLIVANNRLSHWLEGDLNAMIGACKVAASRIQTMLDKYGAEKVITAIDNRIQYTENRVRDEISSWPDGTYVGETFADHDFQGNRDIKVRATVTVKGSDLHIDFTGSSPQVKGFINSPLSNTTSFAFVGISTCCDEDIPINEGYMNPVTVTAPIGTVVNPQLPAPCGHATACVGAEIAEAVLQAISQCAPKRVGVNAHKLPLAYSHGKYDDGKPWVNLNFYGYTGGAGAAYETDGWGLYPPVMTGVILPSIEMTEVQYPSRVLKHEYTSDFTGAGRWRGTPGLDVQIQHLKESRTSVMMAGGRNTTKGFCGAGDSPSNKVIVGYGTDEAREIDETAFEVKMPVGGIIQFYRAGGGGWGNPLEREPEKVLDD	not soluble
MIPLEKPGSGGSSPGATSGSGRAGRGLSGPCRPPPPPQARGLLTEIRAVVRTEPFQDGYSLCPGRELGRGKFAVVRKCIKKDSGKEFAAKFMRKRRKGQDCRMEIIHEIAVLELAQDNPWVINLHEVYETASEMILVLEYAAGGEIFDQCVADREEAFKEKDVQRLMRQILEGVHFLHTRDVVHLDLKPQNILLTSESPLGDIKIVDFGLSRILKNSEELREIMGTPEYVAPEILSYDPISMATDMWSIGVLTYVMLTGISPFLGNDKQETFLNISQMNLSYSEEEFDVLSESAVDFIRTLLVKKPEDRATAEECLKHPWLTQSSIQEPSFRMEKALEEANALQEGHSVPEINSDTDKSETEESIVTEELIVVTSYTLGQCRQSEKEKMEQKAISKRFKFEEPLLQEIPGEFIY	soluble
MIPRKEMAAVSTEMTMAEMLEVMLKEKYTRWPVTDGDKDSVLGLVNTKHLFSDLLFMTEEERMKMTIHPYVRPVIEVIETIPVHDLLIKMQRERIHMAILSDEYGGTSGLVTTEDILEEIVGEIR	not soluble
MIPVERHQQILALIAERGAVSINELTERLGVSHMTVRRDVQKLEQDGLLLSVSGGVRSPERLATEPSHQDKSVMFSQQKAAMGKLAAQHIPLNSCIYLDAGTTTLSLARELAERDDLLIVTNDFAIAAFLIESSQCRMIHTGGTLCRENQSCIGEAVAQALRNLFIDIAFISASSWSLRGLSTPNEDKVVVKRAAVEASRKRVLLCDTSKYGRIATHLATPLDVFDSIITDDGLPVAAKEALSKMGVEVLVAG	not soluble
MIQDTRPLIRVVAGILLDSDGNYLLSSRPEGKPYAGYWEFAGGKVEAGETDFQALQREFEEELGIRILAATPWLTKIHSYEHARVCLKFLWVNPDQWTGKPQSREGQEWSWQKAGDFTVAPMLPANGALLRSLSVPRRLYGSLKTGLHGENSMGAYRVLPLGSAEGSGANVLMEAAQWQDRPEHADSVWMVVQTREQWRRAQEKGADAVVWRVCDDVQAQEAAEALRQGVSVPLVLAANGQTVARYGKLWLGLGAHVVVRDETIGKNHE	not soluble
MIQIEQIRTGVIQENCYLVYNEEALLIIDPGAEGAKLIQEITRLGKKPAAILLTHTHYDHIGAVEELRHHYQIPVYVSPLEQAWLSNPILNLSGLGRHDDIANIIVQPAEHEFKLTDYEIGGMKFSVVPTPGHSIGSVSFVFDDFVVVGDALFKGSIGRTDLHTGDMQQLLHSITTYLFTLPEEFPVYPGHGDATTIQHEKATNPFFN	not soluble
MIQYYYTKKEWGVVMEKEELKILEELRRILSNKNEAIVILNNYFKGGVGKSKLSTMFAYLTDKLNLKVLMIDKDLQATLTKDLAKTFKVELPRVNFYEGLKNGNLASSIVHLTDNLDLIPGTFDLMLLPKLTRSWTFENESRLLATLLAPLKSDYDLIIIDTVPTPSVYTNNAIVASDYVMIPLQAEEESTNNIQNYISYLIDLQEQFNPGLDMIGFVPYLVDTDSATIKSNLEELYKQHKEDNLVFQNIIKRSNKVSTWSKNGITEHKGYDKKVLSMYKNVFFEMLERIIQLENEKE	soluble
MIRIGHGFDVHRFGGEGPIIIGGVKIPYEQGLIAHSDGDVALHALSDALLGAIAAGDIGRHFPDTDDKWKGADSRELLKDVYRRVKAQGYVLGNADVTIIAQAPKMAPYIQAMCAAIAEDLETDLGNINVKATTTEKLGFTGRKEGIACEAVVLLRKA	not soluble
MIRLQKFKQLTVWVMLGLLTSWIVSCSTDNVGTISKPVTSEVTKIEFWTMQLQPQFTNYFQSLITSFESQNPSIKVKWVDVPWSAMENKILTAVSAKTPPDVVNLNPDFASQLAGRNAWLDLDEKVPSEVSSSYLPNIWQASTLNGKTFGIPWYLTTRLTIYNTDLLKQAGITKPPATYTELAQEAQQIKDKTGKYAFFATFVPQDSGEVLESFVQMGVTLVNAEGKAAFNSPQGKAAFQYWVYLYKKGLLPKESLTQGHRHAIDLYQSGETAFLASGPEFLETISNNAPKISQASAIAPQITGDTGKKNVAVMNIVIPRASKQPDAAVKFALFVTNDENQLAFAKAANVLPSTVTALADSYFKEVPATATIAEKGRIISAQQMQTAEVLTPKMKDFKFLQKAIYENLQAAMLGQKTVDKALEDAAQQWNNR	not soluble
